Like-named read-outs stand apart in the source and are kept apart here.

For orientation: stoichiometry N means the number of molecules, sites or subunits per partner or assembly.

Data set [1] deals with GST–rNLRP1 FIIND(S969A) (rat) (UniProt D9I2G3). Briefly: SEC; Superose 6 10/30, 10 mM Tris pH 8.0, 100 mM NaCl; purified GST–rNLRP1 FIIND(S969A)–rDPP9 complex incubated with fully processed rNLRP1 FIIND at a molar ratio of about 1:1 at 4 °C for 150 min. In general terms: In gel filtration, larger molecules generally elute earlier.
Data set [2] concerns the target rat DPP9 (rat). The data set can be described thus: cryo-EM structure; purified complex after gel filtration, about 0.3 mg/ml in 25 mM Tris-HCl pH 8.0, 150 mM NaCl, 3 mM DTT; Titan Krios 300 kV.
The target in data set [3] is T1, UPA subdomain of the autocleaved rNLRP1 FIIND (rat, UniProt D9I2G3 969-1122).
T1 construct: rat NLRP1, from S969, the residue after the autocleavage site, to the end of the FIIND construct (1122); source: sf21 insect cells, purified; product of the autocleavage of rNLRP1 FIIND (822-1122)
T1 sequence (looked up): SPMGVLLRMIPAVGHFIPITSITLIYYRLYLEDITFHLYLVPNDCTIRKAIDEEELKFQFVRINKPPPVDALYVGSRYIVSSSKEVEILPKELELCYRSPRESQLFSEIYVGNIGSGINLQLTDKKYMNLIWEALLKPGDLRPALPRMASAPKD
Briefly: crystal structure; rNLRP1 FIIND at 8 mg/ml, hanging drop at 18 °C, 1.0 M ammonium sulfate, 0.1 M Bis-Tris pH 5.5, 1% PEG 3,350. To be noted: both partners purified.

Data set [4] concerns the target rat DPP9 (rat). The data set can be described thus: cryo-EM structure; purified complex after gel filtration, about 0.3 mg/ml in 25 mM Tris-HCl pH 8.0, 150 mM NaCl, 3 mM DTT; Titan Krios 300 kV. The source holds these as a separate data set.
Target sequence in this assay (Q8BVG4 other isoform, or with tags, fused parts or gaps): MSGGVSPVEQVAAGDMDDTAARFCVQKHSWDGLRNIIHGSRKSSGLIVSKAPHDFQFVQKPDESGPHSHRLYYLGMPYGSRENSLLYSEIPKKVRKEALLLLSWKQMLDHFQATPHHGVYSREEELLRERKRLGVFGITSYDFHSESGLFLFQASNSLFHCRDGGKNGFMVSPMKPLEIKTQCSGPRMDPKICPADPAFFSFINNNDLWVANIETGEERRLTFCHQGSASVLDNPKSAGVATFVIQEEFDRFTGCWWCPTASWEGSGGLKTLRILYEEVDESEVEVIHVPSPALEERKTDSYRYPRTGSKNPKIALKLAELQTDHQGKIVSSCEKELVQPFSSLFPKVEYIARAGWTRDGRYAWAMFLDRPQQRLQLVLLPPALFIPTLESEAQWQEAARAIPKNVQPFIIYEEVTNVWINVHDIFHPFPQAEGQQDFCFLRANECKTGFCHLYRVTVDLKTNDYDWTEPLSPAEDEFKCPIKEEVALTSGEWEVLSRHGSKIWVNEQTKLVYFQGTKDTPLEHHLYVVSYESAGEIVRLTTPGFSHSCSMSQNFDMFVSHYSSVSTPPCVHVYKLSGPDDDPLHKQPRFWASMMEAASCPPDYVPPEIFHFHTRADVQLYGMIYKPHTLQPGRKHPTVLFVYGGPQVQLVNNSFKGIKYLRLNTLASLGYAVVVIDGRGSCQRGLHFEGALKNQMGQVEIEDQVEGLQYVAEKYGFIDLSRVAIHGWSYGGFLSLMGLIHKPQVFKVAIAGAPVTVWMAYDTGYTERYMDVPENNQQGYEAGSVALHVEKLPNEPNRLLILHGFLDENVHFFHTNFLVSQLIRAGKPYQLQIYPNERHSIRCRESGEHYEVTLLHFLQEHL
Data set [5] deals with the molecule itself. The data set is described as above.

In the case of rat DPP9 (enzyme), the figures for the stoichiometry N (in data set [1]; in the data set with rat DPP9 (rat) [2]) were 1 and 2, respectively.

B1: ZU5 subdomain of the autocleaved rNLRP1 FIIND (domain or fragment, rat, UniProt D9I2G3 822-968, looked up)
chain: GDKHMEPLGTDDDFWGPSGPVSTEVVDRERNLYRVRLPMAGSYHCPSTGLHFVVTRAVTIEIGFCAWSQFLHETPLQHSHMVAGPLFDIKAEHGAVTAVCLPHFVSLQEGKVDSSLFHVAHFQDHGMVLETPARVEPHFAVLENPSF
notes: rat NLRP1, from the start of the FIIND construct (822) to F968, the residue before the autocleavage site; source: sf21 insect cells, purified; product of the autocleavage of rNLRP1 FIIND (822-1122); not shown: GST, N-terminal, cleaved
B1: in data set [3], the binding result is on record as “binds”.

B2: full-length rat NLRP1 (natural protein, UniProt D9I2G3 1-1218, looked up)
chain: MEESQSKQESNTRVAQHGSQQDVDPTFQTKRALEKERSKPRPRPLPRVQLQSLPGWSSTSKDVPLSQLIREMDHESRRCIHRSKKKLDRSEHISQGTIPEIYEKRKETISHTQSMEQKYLFQNFTKLLLLQKCCPGGSEKLVRESWHPCVPEEGGHMIEIQDLFDPNLDTEKKPQLVIIEGAAGIGKSTLARQVKRAWDEGQLYRDRFQHVFFFSCRELAQCKQLSLAELIAQGQEVPTAPTRQILSRPEKLLFILDGIDEPAWVLEDQNPELCVHWSQAQPVHTLLGSLLGKSILPEASLMLTARTTALQKLVPSLGQPHRVEVLGFSEFERKDYFYKYFAKERNTIIDFNLIGSIPVLLTLCEVPWVCWLLCTCLEKQMQQGEVLSLTSQTTTALCLKYLSLTIPGQHLSTQLRTLCSLAAEGICQRRTLFSKSDLCKQGLAEDAIATFLKIGVLQRQPSSLSYSFAHLCLQEFFAAMSYILEDSEEAHGDMGNDRTVETLVERYGRQNLFEAPTVRFLLGLLNTREMREMENIFACKFPWETKLKLLQSIIGEPFCQPCHLGLFHCLYENQEEELLTETMLCFPLTASGPNHMEATVFQTNVKRLVIQTDMELMVVTFCITFSHVRSLRLKGKGQQEYKLTAPAMVLYRWTPISEASWKVLFSNLKCTRNLEELDLSGNPLSYSAVRSLCTALRQPGCRLKTLWLVDCGLTSRCCSFLASMLSAHSRLAELDLRLNDLGDNGVRQLCEGLRNPACNLSILRLDQASLSEQVITELRALETKNPKLFISSTWMSHMTMPTENTDGEESLTSSKQQQQQSGDKHMEPLGTDDDFWGPSGPVSTEVVDRERNLYRVRLPMAGSYHCPSTGLHFVVTRAVTIEIGFCAWSQFLHETPLQHSHMVAGPLFDIKAEHGAVTAVCLPHFVSLQEGKVDSSLFHVAHFQDHGMVLETPARVEPHFAVLENPSFSPMGVLLRMIPAVGHFIPITSITLIYYRLYLEDITFHLYLVPNDCTIRKAIDEEELKFQFVRINKPPPVDALYVGSRYIVSSSKEVEILPKELELCYRSPRESQLFSEIYVGNIGSGINLQLTDKKYMNLIWEALLKPGDLRPALPRMASAPKDAPALLHFVDQHREQLVARVTSVDPLLDKLHGLVLSEEDYETVRAEATNQDKMRKLFRGSRSWSWDCKDHFYQALKETHPHLIMDLLEKSGGVSVRL
notes: rat NLRP1, residues 1-1218, gene synthesized from GenBank HM060632.1; Autocleaves in the FIIND between F968 and S969; of the second copy only UPA is seen, and the abstract calls it a UPA-CARD fragment; also called rNLRP1; full-length rNLRP1; source: sf21 insect cells (baculovirus), co-expressed with rDPP9, purified (GS4B, PreScission, gel filtration); not shown: GST, N-terminal, cleaved
For B2, the stoichiometry N in the data set with rat DPP9 (rat) [4] is 2. The binding result in data set [5] was “binds”.

B3: rNLRP1 FIIND–CARD(S969A) (domain or fragment)
chain: GDKHMEPLGTDDDFWGPSGPVSTEVVDRERNLYRVRLPMAGSYHCPSTGLHFVVTRAVTIEIGFCAWSQFLHETPLQHSHMVAGPLFDIKAEHGAVTAVCLPHFVSLQEGKVDSSLFHVAHFQDHGMVLETPARVEPHFAVLENPSFAPMGVLLRMIPAVGHFIPITSITLIYYRLYLEDITFHLYLVPNDCTIRKAIDEEELKFQFVRINKPPPVDALYVGSRYIVSSSKEVEILPKELELCYRSPRESQLFSEIYVGNIGSGINLQLTDKKYMNLIWEALLKPGDLRPALPRMASAPKDAPALLHFVDQHREQLVARVTSVDPLLDKLHGLVLSEEDYETVRAEATNQDKMRKLFRGSRSWSWDCKDHFYQALKETHPHLIMDLLEKSGGVSVRL
Turning to B3, the stoichiometry N with rat DPP9 (rat) [4] was 1.

The values above are taken from PMC8081665, “Structural and biochemical mechanisms of NLRP1 inhibition by DPP9” (Nature, 2021).
